Here are results for 2 molecules from paper PMC6250052 (Neurobiology of disease, 2018).

First the molecules themselves.
B1: glutathione S-transferase (GST)-tagged OSCP (human oligomycin sensitivity conferring protein) (natural protein, UniProt P48047 24-213, looked up)
chain: FAKLVRPPVQVYGIEGRYATALYSAASKQNKLEQVEKELLRVAQILKEPKVAASVLNPYVKRSIKVKSLNDITAKERFSPLTTNLINLLAENGRLSNTQGVVSAFSTMMSVHRGEVPCTVTSASPLEEATLSELKTVLKSFLSQGQVLKLEAKTDPSILGGMIVRIGEKYVDMSVKTKIQKLGRAMREIV
B2: purified hCypD protein (human Cyclophilin D) (enzyme)
chain: not shown

Test in all cases: pull-down
The target of experiment [1] is Aβ peptide (ApexBio).
The target of experiment [2] is Aβ peptide (ApexBio). The source holds these as a separate data set.
The target of experiment [3] is B1.
Experiment [4] addresses B1. The source holds these as a separate data set.

Like-named read-outs stand apart in the source and are kept apart here.

As usually defined, the Kd is the free concentration of one partner at which half of the binding sites on the other are occupied at equilibrium, for simple one-to-one binding. Lower therefore signals higher affinity. Turning to B1, the dissociation constant (Kd) with Aβ peptide (ApexBio) [1] stood at 88 ± 43 nM; with Aβ peptide (ApexBio) [2] it was 510 ± 71 nM.

For the molecule B2, the figures for the dissociation constant (Kd) in experiment [3] and in experiment [4] were 60 ± 1 nM and 100 ± 15 nM, respectively.
